This is an account of results in the nanobody polyreactivity screen of Harvey et al. (2022).

The series is described as follows: yeast display, Sf9 membrane polyspecificity reagent, FACS + sequencing; frameworks hold sequencing errors. In a few lines: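 Nanobodies came from a synthetic yeast display library in Saccharomyces cerevisiae BJ5465, induced with galactose for 36–48 hours and stained for 1 hour at 4 °C with 10% biotinylated, detergent-solubilized Sf9 membrane reagent. Cells were enriched on streptavidin microbeads and then FACS-sorted, with low and high (top ~1%) gates set on anti-HA fluorescence for expression and streptavidin fluorescence for reagent binding. Each polyreactivity label reflects the gate a clone came from. Genes were amplified by colony PCR, sequenced by MiSeq 2 × 250 and filtered by CDR length.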
For the sequence “QVQLVESGGGLVQAGGSLRLSCAASGIIFRYYAMGLYRQAPGKERELVAAISQGGGSTYYADSVKGRFTISRDNAKYTVYLPMKTLKPEDTAVYYCNTGRRHGLTQGGDYWGQGTQVTVSS”, the “polyreactivity (PSR sort gate)” value is “high polyreactivity”.

As to “QVQLVESGGGLVQAGGSLRLSCAASGIIFRYYAMGWYRQAPGKEREFVAAISSSGVRTYYADSVKGRFTISRDNAKNTVYLQMNSLKPEDTAVYYCAAASRANSYRYNYWGQGTQVTVSS”, the “polyreactivity (PSR sort gate)” value is on record as “high polyreactivity”. The result for “QVQLVESGGGLVQAGGSLRLSCAASGIIFRYYAMGWYRQAPGKEREFVAAITWRGTSTYYADSVKGRFTISRDNAKNTVYLQMNSLKPEDTAVYYCATATAFPYYGLDYWGQGNQVTVSS” reads “high polyreactivity”; that for “QVQLVESGGGLVQAGGSLRLSCAASGIIFRYYAMGWYRQAPGKERELVAAISRGGSTYYADSVKGRFTISRDNAKNTVYLQMNSLKPEDTAVYYCAATSYRRTGYNYWGQGTQVTVSS”, “high polyreactivity”. The result for “QVQLVESGGGLVQAGGSLRLSCAASGIIFRYYAMGWYRQAPGKERELVAGISYRGGSTYYADSVKGRFTISRDNAKNTVYLQMNSLKPEDTAVYYCAAVVYPRNYWGQGTQVTVSS” reads “high polyreactivity”; that for “QVQLVESGGGLVQAGGSLRLSCAASGIIFRYYAMGWYRQAPGKERELVASITARSGSTYYADSVKGRFTISRDNAKNTVYLQMNSLKPEDTAVYYCAKSGKPARYYYWGQGTQVTVSS”, “high polyreactivity”.

Take “QVQLVESGGGLVQAGGSLRLSCAASGIIFRYYAMGWYRQAPGKERELVATITIGGRTNYADSVKGRFTISRDNAKNTVYLQMNCLKPEDTAVYYCASRVYKYGSVYHRYDYWGQGTQVTVSS”: the “polyreactivity (PSR sort gate)” value was “high polyreactivity”. As to “QVQLVESGGGLVQAGGSLRLSCAASGIIFRYYVMGWYRQAPGKERELVAAISWSGGSTYYADSVKGRFTISRDNAKNTVYLQMNSLKPEDTAVYYCAASRGILASEFGYWGQGTQVTVSS”, the “polyreactivity (PSR sort gate)” value is “high polyreactivity”.

On to “QVQLVESGGGLVQAGGSLRLSCAASGIIFSGYAMGWYRQAPGKERELVAAISSRGGGTYYADSVKGRFTISRDNAKNTVYLQMNSLKPEDTAVYYCNRVAFTYNYWGQGTQVTVSS”, for which the “polyreactivity (PSR sort gate)” value is “high polyreactivity”. The result for “QVQLVESGGGLVQAGGSLRLSCAASGIIFSGYAMGWYRQAPGKERELVAAITWGGGSTYYADSVKGRFTISRDNAKNTVYLQMNSLKPEDTAVYYCAATWWYEHVRYYSWGQGTQVTVSS” reads “high polyreactivity”; that for “QVQLVESGGGLVQAGGSLRLSCAASGIIFSIYVMGWYRQAPGKERELVAAISRSGGSTYYADSVKGRFTISRDNAKNTVYLQMNSLKPEDTAVYYCAKKPTSTYQPDSPRWSDYWGQGTQVTVSS”, “high polyreactivity”. With “QVQLVESGGGLVQAGGSLRLSCAASGIIFSKYAMGWYRQAPGKERELVAAISWNGVSTYYADSVKGRFTISRDNAKNTVYLQMNSLKPEDTAVYYCAADTYRSRRISYYWGQGTQVTVSS”, the “polyreactivity (PSR sort gate)” value is “low polyreactivity”. Take “QVQLVESGGGLVQAGGSLRLSCAASGIIFSSYAMGWYRQAPGKERELVAAISRRSGSTYYADSVKGRFTISRDNAKNTVYLQMNSLKPEDTAVYYCNKLPGTPRSLATGDYWGQGTQVTVSS”: the “polyreactivity (PSR sort gate)” value is on record as “high polyreactivity”. As for “QVQLVESGGGLVQAGGSLRLSCAASGIIFSSYAMGWYRQAPGKERELVAAISTSGGRTYYADSVKGRFTISRDNAKNTVYLQMNSLKPKDTAVYYCAARYGYWGQGTQVTVSS”, the “polyreactivity (PSR sort gate)” value is reported as “high polyreactivity”.

Regarding “QVQLVESGGGLVQAGGSLRLSCAASGIIFSTYAMGWYRQAPGKERELVAAISYGGGSTYYADSVKGRFTISRDNEKNTVYLQMNSLKPEDTAVYYCAADSYRAYYYWGQGTQVTVSS”, the “polyreactivity (PSR sort gate)” value is on record as “high polyreactivity”. The result for “QVQLVESGGGLVQAGGSLRLSCAASGIIFSWYAMGWYRQAPGKERELVATISSGAHTYYADSVKGRFTISRDNAKNTVYLQMNSLKPEDTAVYYCATTSYGYWFGYIPEVDYWGQGTQVTVSS” reads “low polyreactivity”; that for “QVQLVESGGGLVQAGGSLRLSCAASGIIFSYYAMGCYRQAPGKERELVAAISWSGGSTYYADSVKGRFTISRDNAKNTVYLQMNSLKPEDTAVYYCAADDYLAYVYWGQGTQVTVSS”, “high polyreactivity”; that for “QVQLVESGGGLVQAGGSLRLSCAASGIIFSYYAMGWYRQAPGKERELVAAISRSGARTSYADSVKGRFTISRDNAKNTVYLQMNSLKPEDTAVYYCAARTQGTRYRGEYWGQGTQVTVSS”, “high polyreactivity”. The value for “QVQLVESGGGLVQAGGSLRLSCAASGIIFSYYAMGWYRQAPGKERELVAAITYSGGSTYYADSVKGRFTISRDNAKNTVYLQMNSLKPEDTAVYYCDAEDYYYYSWYEYSYYYWGQGTQVTVSS” was “high polyreactivity”; that for “QVQLVESGGGLVQAGGSLRLSCAASGIIFTGNAMGWYRQAPGKERELVAGITGSGGNTYYADSVKGRFTISRDNAKNTVYLQMNSLKPEDTAVYYCAARRHIFLLIIWSGRVDYWGQGTQVTVSS” was “low polyreactivity”. For “QVQLVESGGGLVQAGGSLRLSCAASGIIFTQNGMGWYRQAPGKERELVAAISWSAGGTYYADSVKGRFTISRYNAKNTVLLQMNSLKPEDTAVYYCNARVFNVFREFNSWGQGTQVTVSS”, the “polyreactivity (PSR sort gate)” value is on record as “low polyreactivity”. The result for “QVQLVESGGGLVQAGGSLRLSCAASGIIFTRYVMGWYRQAPRKERELVAAISWSGGRTYYADSVKGRFTISRDNAKNTVYLQMNSLKPEDTAVYYCAAGIYQHAGGDYWGQGTQVTVSS” reads “high polyreactivity”. The result for “QVQLVESGGGLVQAGGSLRLSCAASGIIFTVYDMGWYRQPPGKERELVAAITWSGGSTYYADSVKGRFTISRDNAKNTVYLQMNSLKPEDTAVYYCIKVGRVWDVETDGDYDYWGQGTQVTVSS” reads “low polyreactivity”.

On to “QVQLVESGGGLVQAGGSLRLSCAASGIIFTYYDMGWYRQAPGKERELVAGIDYSGTSTYYADSVKGRFTISRDNAKNTVYLQMNSLKPEDTAVYYCAAVPVWGGYFAGEYYYWGQGTQVTVSS”, for which the “polyreactivity (PSR sort gate)” value was “high polyreactivity”. The result for “QVQLVESGGGLVQAGGSLRLSCAASGIIFVKYARGWSRQAPGKERELVAAITSGGSTYYADSVKGRFTISRDNAKNTVYLQTNSLKPEDTAVYYCNARRNQYLAQYDYWGQGTQVTVSS” reads “high polyreactivity”.

For the sequence “QVQLVESGGGLVQAGGSLRLSCAASGIIFVRYTMGWYRQAPGKERELVAAISSSGGSTYYADSVKGRFTISRDNAKNTVYLQLNSLKPEDTAVYYCIAEIRDNNVGYDTDYDYWGQGSQVTVSS”, the “polyreactivity (PSR sort gate)” value is given as “high polyreactivity”. Turning to “QVQLVESGGGLVQAGGSLRLSCAASGIIFWHYAMGMYRQAPGKERELVADISRRGGSTYYADSVKGRFTISRDNAKNTVYLQINSLKPEDNAVYYCAARYHPGGYDSWGQGTQVTVSS”, the “polyreactivity (PSR sort gate)” value was “low polyreactivity”. Regarding “QVQLVESGGGLVQAGGSLRLSCAASGIIFWLYTMGWYRQAPGKERELVAAITSGGSTYYAESVKGRFTISRDNAKNTVYLQMNSLKPEDTAVYYCAAVSRAPGLRYDYWGQGTQVTVSS”, the “polyreactivity (PSR sort gate)” value was “high polyreactivity”. The value for “QVQLVESGGGLVQAGGSLRLSCAASGIIFWRYAMGWYRQAPGKERELVASISSSGGRTYYADSVKGRFTISRDNAKNTVYLQMNSLKPEDTAVYYCAARGPYGYDLLYYWGQGTQVTVSS” was “high polyreactivity”. The result for “QVQLVESGGGLVQAGGSLRLSCAASGIIFWYYAMGWYIQAPGKERELVAAFSSGGSTTYADSVKGRFTISRDNAKNTVYLQINSLKPEDTAVYYCAASVRGIRYDYWGQGTQVTVSS” reads “low polyreactivity”; that for “QVQLVESGGGLVQAGGSLRLSCAASGIIFWYYAMGWYRQAPGKERELVAAISRGGTTYYADSVKGRFTISRDNAKNTVYLQMNSLKPEDTAVYYCAAGVRYRLTRYFYPDFDYWGQGTQVTVSS”, “high polyreactivity”. The value for “QVQLVESGGGLVQAGGSLRLSCAASGIIFYAYAMGWYRQAPGKETELVAAITFSAVSTNYADSVKGRFTISRDYAKNTVYLQMNSLKPEDTAVYYCAAEAYKHGVWDYDYWGQGTQVTVSS” was “low polyreactivity”. Regarding “QVQLVESGGGLVQAGGSLRLSCAASGIIFYAYVMGWYRQAPGKERELVAAITVSGGSTYYADSVKGRFTISRDNAKNTVYLQMNSLKPEDTAVYYCAADWNFYQRTFDSWGQGTQVTVSS”, the “polyreactivity (PSR sort gate)” value is given as “low polyreactivity”. The value for “QVQLVESGGGLVQAGGSLRLSCAASGIIFYDYAMGWYRQAPGKERELVAAISKRGGSTYYADSVKGRFTISRDNAKNTVYLQMNSLKPEDTAVYYCAAKYYRYGDPDRYDYWGQGTQVTVSS” was “high polyreactivity”; that for “QVQLVESGGGLVQAGGSLRLSCAASGIIFYDYAMGWYRQAPGKERELVATITRGGGTKYADSVKGRFTISRDNAKNTVYLQMNSLKQEDTAVYYCAADSHGDYEGDYWGQGTQVTVSS” was “low polyreactivity”; that for “QVQLVESGGGLVQAGGSLRLSCAASGIIFYFYAMGWYRQAPGKERELVAAITSSGGSTYYADSVKGRFTISRDNAKNTVYLQMNSLKPEDTAVYYCAADSLHGRKFRGVDYWGQGTQVTVSS” was “low polyreactivity”. Take “QVQLVESGGGLVQAGGSLRLSCAASGIIFYGNTLGWYRQAPGKERELVAGIDFSDDSTNYADSVKGRFTISRDNAKNSVYLLRNSLKPEDTAVYYCAADTRSPSAQEVDYWGQGTQVTVSS”: the “polyreactivity (PSR sort gate)” value was “low polyreactivity”. Turning to “QVQLVESGGGLVQAGGSLRLSCAASGIIFYGYVMGWYRQAPGKERELVATITSSGGSTYYADSVKGRFTISRDNAKNSVYLQMNSLKPEDTAVYYCAADYYYGAWVRHDYWGQGTQVTVSS”, the “polyreactivity (PSR sort gate)” value is “low polyreactivity”. With “QVQLVESGGGLVQAGGSLRLSCAASGIIFYHYPMGWYRQAPGKERELVAAITGSGIRTYYADSVKGRFTISRDNAMNTVYLQMNSLKPEDTAVYYCGAQQRYWSTYGYWGQGTQVTVSS”, the “polyreactivity (PSR sort gate)” value is “high polyreactivity”.

“QVQLVESGGGLVQAGGSLRLSCAASGIIFYIYTMGWYRQAPGKERELVAAINRSGSRTYYADSVKGRFTISRDYAKNNVYLQMNSLKPEDTAVYYCAAGTGSRDDYWGQGTQVTVST”: the “polyreactivity (PSR sort gate)” value is reported as “high polyreactivity”. With “QVQLVESGGGLVQAGGSLRLSCAASGIIFYKNAMGWYRQAPGKERELVAAISGSGGRTYYADSVKGRFTISRDNAKKTVYLQMNSLKPEDTAVYYCAARKPYRHGYESWGQGTQVTVSS”, the “polyreactivity (PSR sort gate)” value is on record as “high polyreactivity”.
